The results in this text go back to US20090291083A1, “BARB4 TARGET, ANTIBODY DESIGNATED BARB4, BARB4 RELATED ANTIBODIES, AND METHODS OF MAKING AND USING SAME” (PATRYS LIMITED, priority 2008, published 2009).

For assay [1], the system named is human pancreas carcinoma cells (BXPC-3). Nature of the assay: Glycosidase assay on cytospins, immunohistochemical staining. The settings on record: BXPC-3 cytospins, biotinylated BARB4 100 μg/ml. It counts as binding. As to the method: To determine whether O- or N-linked sugar residues are potentially involved in BARB4 binding to tumor cells, cytospin preparations of BXPC-3 cancer cells were incubated with N- or O-glycosidase. In brief, 4×10^5 human pancreas carcinoma cells (BXPC-3) were resuspended in 1 ml Dulbecco's phosphate buffered saline pH 7.2 (Sigma, Taufkirchen, Germany) and incubated with 10 U/ml N-glycosidase or 40 mU/ml O-glycosidase (both Roche Applied Science, Mannheim, Germany) for 2 hours at 37° C. Untreated cells in Dulbecco's phosphate buffered saline served as control. Cytospins were prepared and immunohistochemical staining with biotinylated BARB4 antibody (100 μg/ml) was performed.
After treatment of the cells, binding of BARB4 was evaluated by immunohistochemical staining (FIG. 5). […] BARB4 could therefore bind to an eptiope that includes or consists of a carbohydrate moiety that is removed or modified by O-glycosidase treatment.

Another assay deals with BxPC-3. Nature of the assay: FACS analysis of cell surface binding, BARB4 and commercial TAF 15 antibody. The arrangement: species or system human. The settings on record: BARB4 100 ug/ml, TAF 15 antibody 25 μg/ml. As to the method:
(§1) To further validate BARB4 target protein TAF 15, BARB4 and a commercial TAF 15 antibody (anti-human TAFII p68, Santa Cruz Biotechnology, sc-81121) were analyzed for binding to BxPC-3, HEK 293, A549 and HeLa cell lines. In brief, cells were trypsinized with cell dissociation solution (Sigma C5789), resuspended in complete medium (RPMI 1640, PAA, E15-039, 10% Fetal bovine serum, PAA, A15-151 and 1% Glutamine, PAA, M11-004) and set on 2×10^5/ml. After 30 minutes on ice, cells were dispersed at 1 ml per FACS-tube and washed once with ice-cold PBS by centrifugation with 500 g and 4° C. Staining was done with BARB4 (100 ug/ml) or the commercial TAF 15 (25 μg/ml) IgG antibodies, control IgGs (IgG lambda, or mouse IgG), or without antibody in 200 μl PBS. Cells were incubated with 25 μg/ml antibody in 100 μl for 30 minutes on ice, then washed with ice cold PBS and secondary antibody (anti mouse IgG-FITC, dianova 115-095-008) was applied at a dilution of 1:50 in 200 μl per tube. After another 30 minutes of incubation in the dark, cells were washed twice with PBS and analyzed by FACS. […] BARB4 target protein TAF 15 validation was then analyzed by immunoprecipitation of MKNcell extracts with BARB4 and subsequent Western blotting with either BARB4 or anti-TAF 15 antibodies (Biomol, A300-308A; or Aviva, ARP30111_T100).

A further assay relates to A549. The assay is described as above. The settings on record: BARB4 100 ug/ml, TAF 15 antibody 25 μg/ml. Also on record: species or system human. As to the method:
as §1

The subject of assay [2] is membrane preparations of tumor cell line BXPC-3. Nature of the assay: Western blot on membrane preparations. The settings on record: BXPC-3 membrane preparation; FIG. 6A. The class given is binding, human. As to the method:
For BARB4 target assays the established, human pancreatic adenocarcinoma cell line BXPC-3 was used. The adherent cells were grown to a confluence of about 90% in RPMI 1640 culture medium (PAA, Vienna) supplemented with 10% (V/V) FCS, 1% (V/V) glutamine and 1% (V/V) streptomycin/penicillin at 37° C. and a 7% CO2 atmosphere (HERA cell incubator, Heraeus, Hanau). Sterile tissue culture dishes 145/20 (greiner bio-one, Frickenhausen) were prepared with 1 ml cell suspension containing 2−3×10^6 cells/ml (suspension medium is equivalent to culture medium described above) and 50 ml supplemented RPMI 1640 medium. After three or four days the carcinoma cells could be harvested for membrane extract preparation. For this purpose, BXPC-3 cells were washed with phosphate-buffered saline (PBS; containing 0.137 M NaCl, 0.027 M KCl, 0.065 M Na2HPO4×2H2O, 0.015 M KH2PO4) and the adherent cells were scraped off the tissue culture dishes. The cell suspension was centrifuged (1500×g for 5 minutes at room temperature). The supernatant was removed and the pellet was washed again with PBS followed by a further centrifugation step (1500×g, 5 minutes at room temperature). Afterwards the supernatant was removed again. A single cell pellet includes carcinoma cells from 10 tissue culture dishes. It was immediately used for membrane extract preparation or stored at −20° C. […]
Background: In western blotting, separated proteins are transferred to a membrane and probed.

B1: BARB4: human IgG antibody produced by hybridoma DSMZ Deposit No. DSM ACC2876; heavy chain SEQ ID NOs:1, 3, 5, 7, light chain SEQ ID NO:9 (antibody, V domains shown)
VH: QVQLVESGGGVVQPGRSLRLSCAASGFRFTTHGMHWVRQAPGKGLEWVAVISYNGRNKYYADYVNGRFTISRDDSRDTVFLQMNSLRPEDTAMYYCAKVRGDGYGDYGYFDYWGHGTLVSVSS
VL: QSALTQPRSVSGSPGQSVTISCTGTYNYVSWYQQHPGKAPKLMIFDVSRRSSGVPDRFSGSKSGNTASLTISGLQAEDEADYYCCSYGGTYLYVFGTGTTVTVLGQ
B1: in assay [1] (10 U/ml N-glycosidase 2 hours 37° C.), the “surface binding on cells treated with N-glycosidase” value is reported as “clear reduction of surface binding”. For the same molecule, the “binding on cells treated with O-glycosidase” value in assay [1] (40 mU/ml O-glycosidase 2 hours 37° C.) is “no effect”. Further, the “FACS binding to the cell surface” value with BxPC-3 and in the assay with A549 was “binding” in each case. For the same molecule, the “binding on Western blots with membrane preparations” value in assay [2] was “binds to a membrane molecule with a relative molecular mass between 70 and 85 kD”.
